T1: EsCas13d, nuclease-dead (Eubacterium siraeum, UniProt B0MS50, R295A;H300A;R849A;H854A)
T1 sequence: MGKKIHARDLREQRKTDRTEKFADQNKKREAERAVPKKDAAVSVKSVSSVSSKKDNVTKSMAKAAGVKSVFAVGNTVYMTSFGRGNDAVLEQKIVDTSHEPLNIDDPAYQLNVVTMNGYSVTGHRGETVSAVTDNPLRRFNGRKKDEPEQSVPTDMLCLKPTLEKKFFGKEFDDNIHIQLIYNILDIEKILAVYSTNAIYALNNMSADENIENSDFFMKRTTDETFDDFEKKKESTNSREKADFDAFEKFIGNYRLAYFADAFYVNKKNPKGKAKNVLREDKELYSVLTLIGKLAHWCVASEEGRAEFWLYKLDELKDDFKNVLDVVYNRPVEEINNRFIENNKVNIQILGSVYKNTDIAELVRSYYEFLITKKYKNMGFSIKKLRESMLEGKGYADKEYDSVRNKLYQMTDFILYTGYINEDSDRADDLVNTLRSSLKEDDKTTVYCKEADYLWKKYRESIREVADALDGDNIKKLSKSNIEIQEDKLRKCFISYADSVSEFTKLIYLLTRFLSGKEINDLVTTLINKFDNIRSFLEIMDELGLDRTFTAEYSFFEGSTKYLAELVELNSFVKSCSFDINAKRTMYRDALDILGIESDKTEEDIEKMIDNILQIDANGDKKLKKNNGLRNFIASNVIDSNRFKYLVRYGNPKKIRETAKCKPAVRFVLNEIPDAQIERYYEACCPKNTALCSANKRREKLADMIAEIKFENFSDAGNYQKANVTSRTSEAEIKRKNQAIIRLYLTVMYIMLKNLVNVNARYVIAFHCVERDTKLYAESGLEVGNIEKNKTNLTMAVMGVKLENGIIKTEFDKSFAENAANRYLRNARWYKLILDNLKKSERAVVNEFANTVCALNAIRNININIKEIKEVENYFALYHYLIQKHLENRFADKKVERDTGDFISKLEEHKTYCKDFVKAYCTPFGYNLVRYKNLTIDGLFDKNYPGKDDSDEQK

B1: target 1 C2A,C7U (mixed)
RNA 1: CACCCGUGCAAAAAUGCAGGGGUCUAAAACUGAGCGGAUAACCUCUCUAUGG
RNA 2: GGGAAUGGAUCCACAUCUACGAAUUCGUACCAUAGAGAGGUUAUUCGCUAACCGAGAUCGGAAGAGCACACGU
B2: target 1 C4A,A20U (mixed)
RNA 1: CACCCGUGCAAAAAUGCAGGGGUCUAAAACUGAGCGGAUAACCUCUCUAUGG
RNA 2: GGGAAUGGAUCCACAUCUACGAAUUCGUACCUUAGAGAGGUUAUCCGAUCACCGAGAUCGGAAGAGCACACGU
B3: target 1 insC 3' of 17,insA 3' of 15 (mixed)
RNA 1: CACCCGUGCAAAAAUGCAGGGGUCUAAAACUGAGCGGAUAACCUCUCUAUGG
RNA 2: GGGAAUGGAUCCACAUCUACGAAUUCGUACCAUAGCAGAAGGUUAUCCGCUCACCGAGAUCGGAAGAGCACACGU
B4: target 1 insU 3' of 4,insU 3' of 2 (mixed)
RNA 1: CACCCGUGCAAAAAUGCAGGGGUCUAAAACUGAGCGGAUAACCUCUCUAUGG
RNA 2: GGGAAUGGAUCCACAUCUACGAAUUCGUACCAUAGAGAGGUUAUCCGCUUCUACCGAGAUCGGAAGAGCACACGU
B5: target 1 insC 3' of 20,insU 3' of 15 (mixed)
RNA 1: CACCCGUGCAAAAAUGCAGGGGUCUAAAACUGAGCGGAUAACCUCUCUAUGG
RNA 2: GGGAAUGGAUCCACAUCUACGAAUUCGUACCACUAGAGUAGGUUAUCCGCUCACCGAGAUCGGAAGAGCACACGU
B6: target 1 insU 3' of 17,insG 3' of 14 (mixed)
RNA 1: CACCCGUGCAAAAAUGCAGGGGUCUAAAACUGAGCGGAUAACCUCUCUAUGG
RNA 2: GGGAAUGGAUCCACAUCUACGAAUUCGUACCAUAGUAGAGGGUUAUCCGCUCACCGAGAUCGGAAGAGCACACGU
B7: target 1 insU 3' of 21,insA 3' of 3 (mixed)
RNA 1: CACCCGUGCAAAAAUGCAGGGGUCUAAAACUGAGCGGAUAACCUCUCUAUGG
RNA 2: GGGAAUGGAUCCACAUCUACGAAUUCGUACCUAUAGAGAGGUUAUCCGCUACACCGAGAUCGGAAGAGCACACGU
B8: target 1 complement block 4-9 (mixed)
RNA 1: CACCCGUGCAAAAAUGCAGGGGUCUAAAACUGAGCGGAUAACCUCUCUAUGG
RNA 2: GGGAAUGGAUCCACAUCUACGAAUUCGUACCAUAGAGAGGUUUAGGCGUCACCGAGAUCGGAAGAGCACACGU
B9: target 1 insC 3' of 16,insA 3' of 7 (mixed)
RNA 1: CACCCGUGCAAAAAUGCAGGGGUCUAAAACUGAGCGGAUAACCUCUCUAUGG
RNA 2: GGGAAUGGAUCCACAUCUACGAAUUCGUACCAUAGACGAGGUUAUCACGCUCACCGAGAUCGGAAGAGCACACGU
B10: target 1 insU 3' of 7,insG 3' of 2 (mixed)
RNA 1: CACCCGUGCAAAAAUGCAGGGGUCUAAAACUGAGCGGAUAACCUCUCUAUGG
RNA 2: GGGAAUGGAUCCACAUCUACGAAUUCGUACCAUAGAGAGGUUAUCUCGCUCGACCGAGAUCGGAAGAGCACACGU
B11: target 1 insA 3' of 10,insC 3' of 8 (mixed)
RNA 1: CACCCGUGCAAAAAUGCAGGGGUCUAAAACUGAGCGGAUAACCUCUCUAUGG
RNA 2: GGGAAUGGAUCCACAUCUACGAAUUCGUACCAUAGAGAGGUUAAUCCCGCUCACCGAGAUCGGAAGAGCACACGU
B12: target 1 insU 3' of 18,insG 3' of 4 (mixed)
RNA 1: CACCCGUGCAAAAAUGCAGGGGUCUAAAACUGAGCGGAUAACCUCUCUAUGG
RNA 2: GGGAAUGGAUCCACAUCUACGAAUUCGUACCAUAUGAGAGGUUAUCCGCGUCACCGAGAUCGGAAGAGCACACGU
B13: target 1 G5A,A9G (mixed)
RNA 1: CACCCGUGCAAAAAUGCAGGGGUCUAAAACUGAGCGGAUAACCUCUCUAUGG
RNA 2: GGGAAUGGAUCCACAUCUACGAAUUCGUACCAUAGAGAGGUUGUCCACUCACCGAGAUCGGAAGAGCACACGU
B14: target 1 del9,del11 (mixed)
RNA 1: CACCCGUGCAAAAAUGCAGGGGUCUAAAACUGAGCGGAUAACCUCUCUAUGG
RNA 2: GGGAAUGGAUCCACAUCUACGAAUUCGUACCAUAGAGAGGUUCCGCUCACCGAGAUCGGAAGAGCACACGU
B15: target 1 C7U,G17C (mixed)
RNA 1: CACCCGUGCAAAAAUGCAGGGGUCUAAAACUGAGCGGAUAACCUCUCUAUGG
RNA 2: GGGAAUGGAUCCACAUCUACGAAUUCGUACCAUACAGAGGUUAUUCGCUCACCGAGAUCGGAAGAGCACACGU
B16: target 1 A1G,U19G (mixed)
RNA 1: CACCCGUGCAAAAAUGCAGGGGUCUAAAACUGAGCGGAUAACCUCUCUAUGG
RNA 2: GGGAAUGGAUCCACAUCUACGAAUUCGUACCAGAGAGAGGUUAUCCGCUCGCCGAGAUCGGAAGAGCACACGU
B17: target 1 insC 3' of 15,insC 3' of 12 (mixed)
RNA 1: CACCCGUGCAAAAAUGCAGGGGUCUAAAACUGAGCGGAUAACCUCUCUAUGG
RNA 2: GGGAAUGGAUCCACAUCUACGAAUUCGUACCAUAGAGCAGGCUUAUCCGCUCACCGAGAUCGGAAGAGCACACGU
B18: target 1 insC 3' of 12,insC 3' of 5 (mixed)
RNA 1: CACCCGUGCAAAAAUGCAGGGGUCUAAAACUGAGCGGAUAACCUCUCUAUGG
RNA 2: GGGAAUGGAUCCACAUCUACGAAUUCGUACCAUAGAGAGGCUUAUCCGCCUCACCGAGAUCGGAAGAGCACACGU
B19: target 1 insC 3' of 5 (mixed)
RNA 1: CACCCGUGCAAAAAUGCAGGGGUCUAAAACUGAGCGGAUAACCUCUCUAUGG
RNA 2: GGGAAUGGAUCCACAUCUACGAAUUCGUACCAUAGAGAGGUUAUCCGCCUCACCGAGAUCGGAAGAGCACACGU
B20: target 1 insU 3' of 12,insC 3' of 8 (mixed)
RNA 1: CACCCGUGCAAAAAUGCAGGGGUCUAAAACUGAGCGGAUAACCUCUCUAUGG
RNA 2: GGGAAUGGAUCCACAUCUACGAAUUCGUACCAUAGAGAGGUUUAUCCCGCUCACCGAGAUCGGAAGAGCACACGU
B21: target 1 C7G,A14U (mixed)
RNA 1: CACCCGUGCAAAAAUGCAGGGGUCUAAAACUGAGCGGAUAACCUCUCUAUGG
RNA 2: GGGAAUGGAUCCACAUCUACGAAUUCGUACCAUAGAGUGGUUAUGCGCUCACCGAGAUCGGAAGAGCACACGU
B22: target 1 insG 3' of 14,insA 3' of 6 (mixed)
RNA 1: CACCCGUGCAAAAAUGCAGGGGUCUAAAACUGAGCGGAUAACCUCUCUAUGG
RNA 2: GGGAAUGGAUCCACAUCUACGAAUUCGUACCAUAGAGAGGGUUAUCCAGCUCACCGAGAUCGGAAGAGCACACGU
B23: target 1 C4G,C7G (mixed)
RNA 1: CACCCGUGCAAAAAUGCAGGGGUCUAAAACUGAGCGGAUAACCUCUCUAUGG
RNA 2: GGGAAUGGAUCCACAUCUACGAAUUCGUACCAUAGAGAGGUUAUGCGGUCACCGAGAUCGGAAGAGCACACGU
B24: target 1 C4G,U8G (mixed)
RNA 1: CACCCGUGCAAAAAUGCAGGGGUCUAAAACUGAGCGGAUAACCUCUCUAUGG
RNA 2: GGGAAUGGAUCCACAUCUACGAAUUCGUACCAUAGAGAGGUUAGCCGGUCACCGAGAUCGGAAGAGCACACGU
B25: target 1 C2A,C7A (mixed)
RNA 1: CACCCGUGCAAAAAUGCAGGGGUCUAAAACUGAGCGGAUAACCUCUCUAUGG
RNA 2: GGGAAUGGAUCCACAUCUACGAAUUCGUACCAUAGAGAGGUUAUACGCUAACCGAGAUCGGAAGAGCACACGU
B26: target 1 insA 3' of 19,insC 3' of 9 (mixed)
RNA 1: CACCCGUGCAAAAAUGCAGGGGUCUAAAACUGAGCGGAUAACCUCUCUAUGG
RNA 2: GGGAAUGGAUCCACAUCUACGAAUUCGUACCAUAAGAGAGGUUACUCCGCUCACCGAGAUCGGAAGAGCACACGU
B27: target 1 del7 (mixed)
RNA 1: CACCCGUGCAAAAAUGCAGGGGUCUAAAACUGAGCGGAUAACCUCUCUAUGG
RNA 2: GGGAAUGGAUCCACAUCUACGAAUUCGUACCAUAGAGAGGUUAUCGCUCACCGAGAUCGGAAGAGCACACGU
B28: target 1 insA 3' of 17,insC 3' of 8 (mixed)
RNA 1: CACCCGUGCAAAAAUGCAGGGGUCUAAAACUGAGCGGAUAACCUCUCUAUGG
RNA 2: GGGAAUGGAUCCACAUCUACGAAUUCGUACCAUAGAAGAGGUUAUCCCGCUCACCGAGAUCGGAAGAGCACACGU

biological target: T1, EsCas13d, nuclease-dead; assay: crRNA (strand 1, pre-loaded); Mg2+; 40 mM Tris-HCl pH 7.5, 150 mM NaCl, 6 mM MgCl2, 1 mM DTT, 0.1% Tween-20, 0.2 mg/ml BSA; 25 C; 10 min per concentration, then washed; conditions: tags: His6-TwinStrep-SUMO cleaved; N-terminal SNAP kept (SNAP-Surface 488); label: 3' end held by stalled T7 RNA polymerase

Row | Binder | Kd [nM]
1 | B1 | 5.2 ± 0.4
2 | B2 | 21.1 ± 3.3
3 | B3 | 28 ± 4
4 | B4 | 9.5 ± 0.4
5 | B5 | 10 ± 0.7
6 | B6 | 23 ± 5
7 | B7 | 18.1 ± 0.9
8 | B8 | 7.99 ± 0.28
9 | B9 | 63 ± 15
10 | B10 | 15.3 ± 1.2
11 | B11 | 15.4 ± 0.8
12 | B12 | 20 ± 1.2
13 | B13 | 19.3 ± 1.1
14 | B14 | 13.2 ± 1
15 | B15 | 77 ± 35
16 | B16 | 51 ± 6
17 | B17 | 60 ± 13
18 | B18 | 13.4 ± 0.7
19 | B19 | 9.6 ± 0.7
20 | B20 | 19.5 ± 1
21 | B21 | 66 ± 16
22 | B22 | 14.6 ± 1.3
23 | B23 | 9.7 ± 0.5
24 | B24 | 5.52 ± 0.21
25 | B25 | 5.34 ± 0.16
26 | B26 | 55 ± 4
27 | B27 | 8.01 ± 0.33
28 | B28 | 18.6 ± 1.3
